The series concerns the molecule itself. As to the kind of experiment: SEC.

B1: EAL domain of TBD1265 from Thiobacillus denitrificans (aa 487-758) (domain or fragment)
chain: not shown
modifications: Se-Met substituted (for the crystals)
With B1, the “stoichiometry N” value was 2.

These data come from PMC2945410 (Journal of molecular biology, 2010).
